Assay in all cases: EMSA; 6 mM MgCl2; EMSA: 10 mM Tris-HCl pH 7.5, 6 mM MgCl2, 100 mM NaCl, 10% glycerol, 0.1% NP-40; 10 nM DNA, 0-1000 nM protein, 1 h at room temperature; 6% native PAGE
What all share (conditions): protein: recombinant; tags: 6xHis-SUMO, cleaved off; label: 5'-6-FAM on primer; 22 bp; 5' overhang 18 nt on template; 5' overhang 3 nt (TTT) on primer

For data set [1], the target named is T1, DNA polymerase theta polymerase domain (PolQM1), L2538R (Homo sapiens, UniProt O75417 1792-2590, L2538R).
T1 sequence: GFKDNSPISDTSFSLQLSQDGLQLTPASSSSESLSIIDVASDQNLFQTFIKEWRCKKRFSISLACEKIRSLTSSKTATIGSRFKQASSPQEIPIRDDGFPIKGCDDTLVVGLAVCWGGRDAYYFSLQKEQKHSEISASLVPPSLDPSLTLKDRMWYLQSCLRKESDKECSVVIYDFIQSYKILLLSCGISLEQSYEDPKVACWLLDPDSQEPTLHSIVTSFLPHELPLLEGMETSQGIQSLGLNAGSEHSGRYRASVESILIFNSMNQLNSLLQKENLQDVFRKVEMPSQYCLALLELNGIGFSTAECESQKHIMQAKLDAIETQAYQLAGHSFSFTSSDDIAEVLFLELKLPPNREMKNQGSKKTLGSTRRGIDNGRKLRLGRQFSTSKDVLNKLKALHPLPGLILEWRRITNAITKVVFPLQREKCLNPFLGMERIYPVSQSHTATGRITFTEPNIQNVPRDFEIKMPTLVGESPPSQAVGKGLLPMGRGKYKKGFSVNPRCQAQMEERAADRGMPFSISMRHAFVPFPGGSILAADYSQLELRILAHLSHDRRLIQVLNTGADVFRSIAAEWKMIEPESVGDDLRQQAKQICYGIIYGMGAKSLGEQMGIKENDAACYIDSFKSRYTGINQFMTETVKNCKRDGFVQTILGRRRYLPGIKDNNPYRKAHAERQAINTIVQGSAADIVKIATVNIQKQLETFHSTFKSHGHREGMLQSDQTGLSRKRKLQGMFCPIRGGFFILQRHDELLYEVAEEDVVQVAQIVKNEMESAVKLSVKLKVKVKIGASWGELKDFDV

Data set [2] has as its target T2, DNA polymerase theta polymerase domain (PolQM1), T2161I (Homo sapiens, UniProt O75417 1792-2590, T2161I).
T2 sequence: T1 sequence with T370I, R747L

Data set [3] concerns the target T3, DNA polymerase theta polymerase domain (PolQM1), WT (Homo sapiens, UniProt O75417 1792-2590).
T3 sequence: T1 sequence with R747L

Data set [4] has as its target T4, DNA polymerase theta polymerase domain (PolQM1), E2406K (Homo sapiens, UniProt O75417 1792-2590, E2406K).
T4 sequence: T1 sequence with E615K, R747L

Where a chain is given by its changes, count along the chain named.

For orientation: Kd means the concentration at which binding is half-saturated.

B1: 25/40 primer-template duplex (CG template) (dsDNA)
DNA 1: TTTGCCTTGACCATGTAACAGAGAG
DNA 2: TCTCTTCTCTCACTCACGCTCTCTGTTACATGGTCAAGGC
For B1, the Kd in data set [1] was 18 ± 4 nM; in data set [2], 13 ± 3 nM; in data set [3], 18 ± 3 nM; in data set [4] it was 14 ± 3 nM.
